Laboratory results taken from EP4799645A2 (GAN & LEE PHARMACEUTICALS CO., LTD., dated 2026).
Numbered stars: 1 amine (or outer) side, 2 acyl side, 3 side chain; on linkers, the order of the positions; unused ones are H or OH. Side chains are listed from the residue outwards. Ends that are not written are not given here. * marks the point of attachment. C22 diacid = O=C(O)CCCCCCCCCCCCCCCCCCCCC(=O)*; γGlu = O=C(O)[C@H](CCC(=O)[*:2])N[*:1]; AEEA = NCCOCCOCC(=O)O

Molecular target: albumin (HSA) (human, UniProt P02768 25-609)
Sequence (P02768 25-609 limits assumed): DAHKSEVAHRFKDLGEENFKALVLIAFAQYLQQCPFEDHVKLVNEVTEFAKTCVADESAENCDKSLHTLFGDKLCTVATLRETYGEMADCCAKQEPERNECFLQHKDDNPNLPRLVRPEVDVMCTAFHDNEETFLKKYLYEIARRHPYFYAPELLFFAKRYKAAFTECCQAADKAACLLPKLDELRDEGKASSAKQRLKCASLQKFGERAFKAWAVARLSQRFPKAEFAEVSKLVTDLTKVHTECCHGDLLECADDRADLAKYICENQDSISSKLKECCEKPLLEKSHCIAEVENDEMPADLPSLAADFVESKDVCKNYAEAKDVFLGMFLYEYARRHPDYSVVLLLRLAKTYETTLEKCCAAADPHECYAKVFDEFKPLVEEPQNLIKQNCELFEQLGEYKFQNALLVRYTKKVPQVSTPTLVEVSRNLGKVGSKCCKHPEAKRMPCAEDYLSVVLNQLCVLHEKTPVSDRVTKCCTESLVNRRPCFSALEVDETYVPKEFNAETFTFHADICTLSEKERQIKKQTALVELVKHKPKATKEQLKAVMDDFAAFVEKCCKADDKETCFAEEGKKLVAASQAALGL
Test: shift of receptor-binding IC50 between 0.005% and 2% HSA (indirect)

HGEGTFTSDVSSYLEGQAAK([AEEA-AEEA-γGlu-C22 diacid])EFIAWLVRGRG (also called Compound 10)
binding result: binds
